Assay results taken from patent US20130315910A1 (Xencor, published 2013).
Where a chain is given by its changes, count along the chain named.

What was measured:
[1] = target: T1, human FcγRIIa (131H), His- and GST-tagged (human, UniProt P12318 34-217); assay: SPR
T1 construct: also called H131 FcγRIIa; HIIa; not shown: 6xHis and GST tags of the pTT5 vector
T1 sequence (looked up): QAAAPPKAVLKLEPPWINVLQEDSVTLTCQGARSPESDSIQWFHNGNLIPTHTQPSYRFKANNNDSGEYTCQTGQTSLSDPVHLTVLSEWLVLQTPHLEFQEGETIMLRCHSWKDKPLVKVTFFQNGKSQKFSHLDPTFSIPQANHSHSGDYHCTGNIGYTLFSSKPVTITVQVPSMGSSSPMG

[2] = target: T2, human FcγRIIa (131R), His- and GST-tagged (human, UniProt P12318 34-217); assay: SPR
T2 construct: Expressed in HEK293T cells, purified by nickel chromatography; also called R131 FcγRIIa; not shown: 6xHis and GST tags of the pTT5 vector
T2 sequence (looked up): T1 sequence (looked up) with H134R

[3] = target: T3, human FcγRIIIa (158V), His- and GST-tagged (human, UniProt P08637 17-208); assay: SPR
T3 construct: also called V158 FcγRIIIa; VIIIa; not shown: 6xHis and GST tags of the pTT5 vector

[4] = target: T4, human FcγRIIb on cells (transfected HEK293T cells; primary human B cells) (human, UniProt P31994 43-310); assay: flow cytometry on FcγRIIb-transfected 293T cells [middle left panel]
T4 construct: whole, on cells; also called CD32b
T4 sequence (looked up): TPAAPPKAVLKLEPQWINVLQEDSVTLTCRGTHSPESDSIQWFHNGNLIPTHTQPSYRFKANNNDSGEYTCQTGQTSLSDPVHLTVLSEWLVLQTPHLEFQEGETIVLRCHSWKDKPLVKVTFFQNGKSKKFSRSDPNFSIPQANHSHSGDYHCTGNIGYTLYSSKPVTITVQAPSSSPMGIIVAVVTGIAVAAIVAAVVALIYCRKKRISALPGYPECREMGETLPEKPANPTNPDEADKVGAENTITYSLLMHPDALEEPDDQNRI
Protocol: (§1) In order to validate the Biacore data and evaluate receptor binding of the variants on the cell surface, binding of select antibodies to cells expressing FcγRIIb was measured. […] HEK293T cells in DMEM with 10% FBS were transfected with human FcγRIIb cDNA in pCMV6 expression vector (Origene Technologies, Rockville, Md.), cultured for 3 days, harvested, washed twice in PBS, resuspended in PBS with 0.1% BSA (PBS/BSA), and aliquoted at 2×10^5 cells per well into 96-well microtiter plates. Fc variant antibodies were serially diluted in PBS/BSA then added to the cells and incubated with mixing for 1 h at room temperature. After extensive washing with PBS/BSA, phycoerythrin (PE)-labeled anti-human-Fab-specific goat F(ab′)2 fragment was added for detection. Cells were incubated for 30 min at room temperature, washed, and resuspended in PBS/BSA. Binding was evaluated using a FACSCanto II flow cytometer (BD Biosciences, San Jose, Calif.), and the mean fluorescence intensity (MFI) was plotted as a function of antibody concentration using Graph Pad Prism software (GraphPad Software, San Diego, Calif.) from which half-maximal binding (EC50) values were determined by sigmoidal dose response modeling.

[5] = target: T4, human FcγRIIb on cells (transfected …); assay: flow cytometry on FcγRIIb-transfected 293T cells [middle right panel]
Protocol: as §1

T3 sequence (P08637 17-208 F176V): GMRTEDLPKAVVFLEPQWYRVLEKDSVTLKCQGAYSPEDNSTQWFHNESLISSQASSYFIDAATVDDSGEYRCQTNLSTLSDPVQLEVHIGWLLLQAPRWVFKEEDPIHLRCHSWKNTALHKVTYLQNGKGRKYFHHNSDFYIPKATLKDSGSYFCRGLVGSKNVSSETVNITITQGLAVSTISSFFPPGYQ

B1: anti-CD19 antibody HuAM4G7 IgG1 S267E (antibody)
heavy: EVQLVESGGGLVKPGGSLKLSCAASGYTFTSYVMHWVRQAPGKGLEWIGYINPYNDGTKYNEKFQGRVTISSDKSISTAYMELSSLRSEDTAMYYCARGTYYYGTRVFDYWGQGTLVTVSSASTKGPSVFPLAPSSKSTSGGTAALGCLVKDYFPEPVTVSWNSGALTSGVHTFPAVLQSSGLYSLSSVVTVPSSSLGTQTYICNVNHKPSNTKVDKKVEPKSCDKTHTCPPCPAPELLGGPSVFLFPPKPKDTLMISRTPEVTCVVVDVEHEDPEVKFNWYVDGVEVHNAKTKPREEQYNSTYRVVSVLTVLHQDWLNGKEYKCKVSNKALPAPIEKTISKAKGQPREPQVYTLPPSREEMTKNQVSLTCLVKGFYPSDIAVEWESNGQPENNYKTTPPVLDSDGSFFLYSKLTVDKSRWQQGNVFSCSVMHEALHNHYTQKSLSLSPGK
light: DIVMTQSPATLSLSPGERATLSCRSSKSLQNVNGNTYLYWFQQKPGQSPQLLIYRMSNLNSGVPDRFSGSGSGTEFTLTISSLEPEDFAVYYCMQHLEYPITFGAGTKLEIKRTVAAPSVFIFPPSDEQLKSGTASVVCLLNNFYPREAKVQWKVDNALQSGNSQESVTEQDSKDSTYSLSSTLTLSKADYEKHKVYACEVTHQGLSSPVTKSFNRGEC
notes: Positions in EU numbering; copies: 2 + 2
For B1, the “Fold vs WT IgG1” value [1] was 0.753 fold, the Kd [1] was 859 nM and the “Fold vs WT IgG1” value [2] was 29.5 fold. The Kd [2] was 29.1 nM, the “Fold vs WT IgG1” value [3] was 0.381 fold and the Kd [3] was 503 nM. For the same binder, the “EC50 (read off the curve)” value [4] was roughly 0.03 µg/mL and the “EC50 (read off the curve)” value [5] was roughly 0.03 µg/mL.
